Drawing on PMC4899871, this text covers percent of parent and response for 1 molecule.

In the assay the target is GST-HA-ATG16L1-231–607 produced in yeast (extended WDD construct that includes residue 300), Q676U5. Kind of assay: peptide microarray. The conditions noted are these: chain shown with the change, probe purified from yeast, mean ± s.d., n=9 replicas, read off a plot.
GST-HA-ATG16L1-231–607 produced in yeast (extended WDD construct that includes residue 300), Q676U5, sequence (Q676U5 231-607): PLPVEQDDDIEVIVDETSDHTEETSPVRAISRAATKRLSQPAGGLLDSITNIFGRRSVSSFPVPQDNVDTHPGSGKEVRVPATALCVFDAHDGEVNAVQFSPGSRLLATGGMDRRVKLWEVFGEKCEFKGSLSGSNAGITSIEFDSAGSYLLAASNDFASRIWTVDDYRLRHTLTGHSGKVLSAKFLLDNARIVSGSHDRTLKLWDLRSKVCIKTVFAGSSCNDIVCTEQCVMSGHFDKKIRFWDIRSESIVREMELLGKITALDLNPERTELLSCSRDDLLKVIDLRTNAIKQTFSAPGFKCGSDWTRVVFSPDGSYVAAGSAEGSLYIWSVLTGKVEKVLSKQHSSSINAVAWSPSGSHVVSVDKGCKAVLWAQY

Take TAVEQAVPSAKLSIAGDAE: the percent of parent (parent: est. 100, scale: % of WT peptide) came out at 12. For the same molecule, the response (parent: est. 1100) is 200 a.u. (OD635).
